Patent publication US20180244758A1 (MAPP BIOPHARMACEUTICAL, published 2018)

Experiments:
Test in all cases: cell-based or functional assay
[1] = molecular target: BDBV GP on rVSV particles (Bundibugyo virus (BDBV))
[2] = molecular target: T1, EBOV GP on rVSV particles (Ebola virus (EBOV), UniProt Q05320 33-676)
T1 sequence: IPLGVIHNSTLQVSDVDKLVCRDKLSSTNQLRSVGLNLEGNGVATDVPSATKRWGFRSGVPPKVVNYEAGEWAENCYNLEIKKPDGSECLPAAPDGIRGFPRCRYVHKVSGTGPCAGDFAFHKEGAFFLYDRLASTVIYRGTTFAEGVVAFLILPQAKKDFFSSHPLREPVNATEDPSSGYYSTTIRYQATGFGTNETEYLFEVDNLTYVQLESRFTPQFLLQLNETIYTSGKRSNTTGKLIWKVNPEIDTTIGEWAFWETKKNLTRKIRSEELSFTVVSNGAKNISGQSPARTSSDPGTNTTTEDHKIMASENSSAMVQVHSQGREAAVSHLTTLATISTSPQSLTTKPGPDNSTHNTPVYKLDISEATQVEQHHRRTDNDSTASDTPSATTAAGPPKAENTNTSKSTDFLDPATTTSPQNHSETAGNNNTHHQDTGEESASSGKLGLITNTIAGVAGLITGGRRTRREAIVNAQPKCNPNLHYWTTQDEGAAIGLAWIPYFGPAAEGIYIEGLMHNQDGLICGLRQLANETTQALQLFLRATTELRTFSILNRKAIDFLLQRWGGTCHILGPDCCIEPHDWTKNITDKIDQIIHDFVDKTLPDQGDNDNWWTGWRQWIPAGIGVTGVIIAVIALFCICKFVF

[3] = molecular target: T2, TAFV GP on VSV pseudotype particles (Tai Forest virus (TAFV), UniProt Q66810 33-676)
T2 sequence: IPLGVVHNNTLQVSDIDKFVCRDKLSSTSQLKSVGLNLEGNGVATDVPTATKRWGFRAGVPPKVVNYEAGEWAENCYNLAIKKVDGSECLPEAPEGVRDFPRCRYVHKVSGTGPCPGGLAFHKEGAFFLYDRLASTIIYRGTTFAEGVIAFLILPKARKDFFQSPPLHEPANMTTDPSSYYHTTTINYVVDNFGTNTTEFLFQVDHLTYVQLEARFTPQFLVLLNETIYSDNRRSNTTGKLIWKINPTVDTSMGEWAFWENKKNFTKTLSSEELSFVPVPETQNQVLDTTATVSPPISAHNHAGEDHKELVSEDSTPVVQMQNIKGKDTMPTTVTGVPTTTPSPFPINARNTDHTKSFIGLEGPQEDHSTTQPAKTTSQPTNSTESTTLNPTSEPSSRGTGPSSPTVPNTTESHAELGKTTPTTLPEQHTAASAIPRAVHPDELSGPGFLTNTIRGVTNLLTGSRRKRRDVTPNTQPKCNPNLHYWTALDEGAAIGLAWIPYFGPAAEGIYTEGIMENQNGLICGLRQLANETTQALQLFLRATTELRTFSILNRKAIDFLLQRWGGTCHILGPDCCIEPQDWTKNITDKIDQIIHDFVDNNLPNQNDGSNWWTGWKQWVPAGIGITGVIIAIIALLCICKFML

[4] = molecular target: T3, RESTV GP on rVSV particles (Reston virus (RESTV), UniProt Q66799 34-677)
T3 sequence: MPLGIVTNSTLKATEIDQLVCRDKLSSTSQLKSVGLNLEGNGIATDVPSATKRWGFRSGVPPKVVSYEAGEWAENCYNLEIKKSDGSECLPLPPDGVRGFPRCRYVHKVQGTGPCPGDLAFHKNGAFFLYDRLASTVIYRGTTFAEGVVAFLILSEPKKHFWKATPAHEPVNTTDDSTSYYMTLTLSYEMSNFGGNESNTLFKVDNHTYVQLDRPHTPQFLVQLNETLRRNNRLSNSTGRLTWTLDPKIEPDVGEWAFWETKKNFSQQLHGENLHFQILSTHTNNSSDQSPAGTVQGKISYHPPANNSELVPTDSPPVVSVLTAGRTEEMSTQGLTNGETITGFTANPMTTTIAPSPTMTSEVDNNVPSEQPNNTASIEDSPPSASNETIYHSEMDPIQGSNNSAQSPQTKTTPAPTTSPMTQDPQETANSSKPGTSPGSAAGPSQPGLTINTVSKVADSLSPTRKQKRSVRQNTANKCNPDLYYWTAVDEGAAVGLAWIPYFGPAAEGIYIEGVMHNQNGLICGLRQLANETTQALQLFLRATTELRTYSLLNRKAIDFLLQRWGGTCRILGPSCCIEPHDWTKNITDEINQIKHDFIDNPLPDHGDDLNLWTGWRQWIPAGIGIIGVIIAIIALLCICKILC

[5] = molecular target: T4, SUDV GP on rVSV particles (Sudan virus (SUDV), UniProt Q66814 33-676)
T4 sequence: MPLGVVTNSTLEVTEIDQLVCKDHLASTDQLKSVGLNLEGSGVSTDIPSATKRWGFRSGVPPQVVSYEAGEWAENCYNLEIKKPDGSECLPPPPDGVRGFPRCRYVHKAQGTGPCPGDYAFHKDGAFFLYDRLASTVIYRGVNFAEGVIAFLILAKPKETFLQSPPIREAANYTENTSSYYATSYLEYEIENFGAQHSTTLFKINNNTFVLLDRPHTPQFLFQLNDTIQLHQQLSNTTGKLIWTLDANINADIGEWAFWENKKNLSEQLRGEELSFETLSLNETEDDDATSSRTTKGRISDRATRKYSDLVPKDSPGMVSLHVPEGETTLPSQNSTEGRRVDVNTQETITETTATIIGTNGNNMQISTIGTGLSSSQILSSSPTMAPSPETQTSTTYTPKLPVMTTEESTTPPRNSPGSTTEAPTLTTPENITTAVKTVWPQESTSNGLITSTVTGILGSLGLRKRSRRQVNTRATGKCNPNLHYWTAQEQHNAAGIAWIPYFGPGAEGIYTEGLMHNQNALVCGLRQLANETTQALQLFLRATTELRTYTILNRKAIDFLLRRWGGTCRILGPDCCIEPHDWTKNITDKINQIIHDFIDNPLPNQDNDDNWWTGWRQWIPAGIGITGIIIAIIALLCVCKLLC

[6] = molecular target: T3, RESTV GP on rVSV particles; remark: listed apart in the source
[7] = molecular target: GP of authentic (wild-type) BDBV (Bundibugyo virus (BDBV))

B1: mAb PE-05 (antibody, V domains shown)
VH: QVQLQESGGGLVKPGRSLRLSCTASGFTFGDYAMSWFRQAPGKGLEWVGFLRSKAYGGTAEYAASVKGRFTMSRDDSKSIAYLQMNSLKTEDTAVYFCTRDGFRGSSWGYSYYGMDVWGQGTTVTVSS
VL: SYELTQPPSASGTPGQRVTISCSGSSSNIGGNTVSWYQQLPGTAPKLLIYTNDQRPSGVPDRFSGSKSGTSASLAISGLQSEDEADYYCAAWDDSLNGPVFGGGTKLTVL
Neutralization (VSV-GP IC50, nM) [1]: 3.7 nM
Neutralization (VSV-GP IC50, nM) [2]: 8.8 nM
Neutralization (VSV-GP IC50, nM) [3]: 0.8 nM
Neutralization (VSV-GP IC50, nM) [4]: 22 nM
Neutralization (VSV-GP IC50, nM) [5]: 34 nM
rVSV-GP neutralization IC50 [6]: 22 nM

B2: mAb PE-87 (antibody, V domains shown)
VH: QVQLVQSGVTLVQPGGSLRVSCAASGFTFSSYAMSWVRQAPGKGLEWVSAISGLGGSTYYADSVKGRFTISRDNSKNTLYLQMNSLRAEDTAVYYCAKDHRVWAAGYHFDYWGQGALVTVSS
VL: DIVLTQSPSTLSASVGDRVTITCRASQSISSWLAWYQQKPGEAPKLLISDASSLESGVPSRFSGSGSGTEFTLTISSLQPDDFATYYCQQYYSSPTFGGGTKVEIK
Neutralization (VSV-GP IC50, nM) [1]: 0.5 nM
Neutralization (VSV-GP IC50, nM) [2]: 0.5 nM
Neutralization (VSV-GP IC50, nM) [3]: 1 nM
Neutralization (VSV-GP IC50, nM) [4]: 0.2 nM
Neutralization (VSV-GP IC50, nM) [5]: 0.3 nM
Microneut. WT IC50 [7]: 0.4 nM
rVSV-GP neutralization IC50 [6]: 0.2 nM

B3: mAb PE-16 (antibody, V domains shown)
VH: QVQLVQSGAEVTKPGASVKVSCKASGYTFTTYYMHWVRQAPGQGLEWVGIINPSGGITRYAQKFQGRVTLTRDTSTTTVYMELSSLRSEDTAVYYCARDRYPVLFATDYGMDVWGQGTTVTVSS
VL: DIVMTQSPATLSLSPGERATLSCRASQSVSGYLAWYQQKPGQAPRLLIYDASNRATGIPARFSGSGSGTDFTLTISSLEPEDFAVYYCQQRSIWPPGVTFGGGTKVEIK
Neutralization (VSV-GP IC50, nM) [1]: 0.6 nM
Neutralization (VSV-GP IC50, nM) [2]: 0.2 nM
Neutralization (VSV-GP IC50, nM) [3]: 4.8 nM
Microneut. WT IC50 [7]: 0.2 nM

B4: mAb PE-47 (antibody, V domains shown)
VH: EVQLVESGGGLVKPGGSLRLSCAASGFTFSNAWMSWVRQAPGEGLEWVGRIKSKTDGGTIDYAAPVKGRFTISRDDSKNTVYLQMTSLKTEDTAVYYCTTYTEDMQYFDWLLRGGETFDYWGQGTLVTVSS
VL: DIQMTQSPSSLSASVGDRVTITCRASQYISTYLNWYQQKPGKAPKLLIYAAYNLQSGVPSRFSGSGSGTDFTLTISSLQPEDFATYYCQQSYSTPGRYTFGQGTKVEIK
Neutralization (VSV-GP IC50, nM) [1]: 0.4 nM
Neutralization (VSV-GP IC50, nM) [2]: 6.6 nM
Neutralization (VSV-GP IC50, nM) [3]: 6.1 nM
Neutralization (VSV-GP IC50, nM) [5]: 5.1 nM
Microneut. WT IC50 [7]: 0.5 nM

B5: mAb PE-24 (antibody, V domains shown)
VH: EVQLVESGGGLVQPGGSLRLSCAASGFTFSSYAMSWVRQAPGKGLEWVSEISGLGGSTYYADSAKGRFTISRDNSKSTLYLQMNSLRAEDTAVYYCAKDHRVWAPGYYFDHWGQGTLVTVSS
VL: DIVLTQSPSTLSASVGDRVTITCRASQSISSWLAWYQQKPGKAPKLLIYDASSLESGVPSRFSGSGSGTEFTLTISSLQPDDFATYFCQQYNRSPTFGGGTKVEIK
Neutralization (VSV-GP IC50, nM) [1]: 0.8 nM
Neutralization (VSV-GP IC50, nM) [2]: 1.8 nM
Neutralization (VSV-GP IC50, nM) [3]: 1.5 nM
Neutralization (VSV-GP IC50, nM) [4]: 0.2 nM
Neutralization (VSV-GP IC50, nM) [5]: 0.5 nM
Microneut. WT IC50 [7]: 0.3 nM
rVSV-GP neutralization IC50 [6]: 0.2 nM
